The text below walks through data of patent US20110129459A1 (Chugai, published 2011).

In general, Kd refers to the equilibrium constant for the complex coming apart. Usually koff stands for the rate constant with which the complex falls apart. The term kon denotes the second-order rate constant of association.

Sequences and labels used below:
B1: H0La130 (H0-SKSC / La130) (antibody, V domains shown)
VH: QVQLVQSGAEVKKPGASVKVSCKASGYTFTGYIMNWVRQAPGQGLEWMGLINPYNGGTSYNQKFKGRVTITADESTSTAYMELSSLRSEDTAVYYCARDGYDDGPYTMDYWGQGTLVTVSS
VL: DIQMTQSPSSLSASVGDRVTITCRTSENIYRFVAWYQQKPGKAPKLLIYNAKTLAKGVPSRFSGSGSGTDFTLTISSLQPEDFATYYCQHHYESPLTFGGGTKVEIKR
B2: H0La326 (H0-SKSC / La326) (antibody, name in Kabat numbering, V domains shown)
VH: QVQLVQSGAEVKKPGASVKVSCKASGYTFTGYIMNWVRQAPGQGLEWMGLINPYNGGTSYNQKFKGRVTITADESTSTAYMELSSLRSEDTAVYYCARDGYDDGPYTMDYWGQGTLVTVSS
VL: DIQMTQSPSSLSASVGDRVTITCRTSENIYSFLAWYQQKPGKAPKLLIYNAKTLAKGVPSRFSGSGSGTDFTLTISSLQPEDFATYYCQHHYESPLFFGGGTKVEIKR
B3: H0La134 (H0-SKSC / La134) (antibody, V domains shown)
VH: QVQLVQSGAEVKKPGASVKVSCKASGYTFTGYIMNWVRQAPGQGLEWMGLINPYNGGTSYNQKFKGRVTITADESTSTAYMELSSLRSEDTAVYYCARDGYDDGPYTMDYWGQGTLVTVSS
VL: DIQMTQSPSSLSASVGDRVTITCRTSENIYRFLAWYQQKPGKAPKLLIYNAKTLAKGVPSRFSGSGSGTDFTLTISSLQPEDFATYYCQHHYESPLTFGGGTKVEIKR
B4: H0La303 (H0-SKSC / La303) (antibody, V domains shown)
VH: QVQLVQSGAEVKKPGASVKVSCKASGYTFTGYIMNWVRQAPGQGLEWMGLINPYNGGTSYNQKFKGRVTITADESTSTAYMELSSLRSEDTAVYYCARDGYDDGPYTMDYWGQGTLVTVSS
VL: DIQMTQSPSSLSASVGDRVTITCRTSENIYSFLAWYQQKPGKAPKLLIYNAKTLAKGVPSRFSGSGSGTDFTLTISSLQPEDFATYYCQHHYDSPLTFGGGTKVEIKR
notes: also called Ls303
B5: H30L17 (H30-M58 / L17) (antibody, V domains shown)
VH: QVQLVQSGAEVKKPGASVKVSCKASGYTFTGYIMNWVRQAPGQGLEWMGLINPYNGGTDYNPQFQDRVTITADESTSTAYMELSSLRSEDTAVYYCARDGYDDGPYTLETWGQGTLVTVSS
VL: DIQMTQSPSSLSASVGDRVTITCQASEDIYSFVAWYQQKPGKAPKLLIYNAQTEAQGVPSRFSGSGSGTDFTLTISSLQPEDFATYYCQHHYDSPLTFGGGTKVEIKR
B6: H28L17 (H28-M58 / L17) (antibody, V domains shown)
VH: QVQLVQSGAEVKKPGASVKVSCKASGYTFTGYVLNWVRQAPGQGLEWMGLINPYNGGTDYNPQFQDRVTITADESTSTAYMELSSLRSEDTAVYYCARDGYDDGPYTLETWGQGTLVTVSS
VL: DIQMTQSPSSLSASVGDRVTITCQASEDIYSFVAWYQQKPGKAPKLLIYNAQTEAQGVPSRFSGSGSGTDFTLTISSLQPEDFATYYCQHHYDSPLTFGGGTKVEIKR
B7: H42L17 (H42-M58 / L17) (antibody, V domains shown)
VH: QVQLVQSGAEVKKPGASVKVSCKASGYTFTGYVLNWVRQAPGQGLEWMGLINPYNGGTDYNPQFQDRVTITADKSTSTAYMELSSLRSEDTAVYYCARDGYDDGPYTLETWGQGTLVTVSS
VL: DIQMTQSPSSLSASVGDRVTITCQASEDIYSFVAWYQQKPGKAPKLLIYNAQTEAQGVPSRFSGSGSGTDFTLTISSLQPEDFATYYCQHHYDSPLTFGGGTKVEIKR
B8: H97L50 (H97-M58 / L50) (antibody, V domains shown)
VH: QVQLVQSGAEVKKPGASVKVSCKASGYTFTGYIMNWVRQAPGQGLEWMGLINPYNGGTSYNQQFQDRVTITADESTSTAYMELSSLRSEDTAVYYCARDGYDDGPYTLETWGQGTLVTVSS
VL: DIQMTQSPSSLSASVGDRVTITCQASEDIYSFLAWYQQKPGKAPKLLIYNAQTEAQGVPSRFSGSGSGTDFTLTISSLQPEDFATYYCQHHYDSPLTFGGGTKVEIKR
B9: H71L17 (H71-M58 / L17) (antibody, V domains shown)
VH: QVQLVQSGAEVKKPGASVKVSCKASGYTFTGYAMNWVRQAPGQGLEWMGLINPYNGGTDYNPQFQGRVTITADESTSTAYMELSSLRSEDTAVYYCARDGYDDGPYTLETWGQGTLVTVSS
VL: DIQMTQSPSSLSASVGDRVTITCQASEDIYSFVAWYQQKPGKAPKLLIYNAQTEAQGVPSRFSGSGSGTDFTLTISSLQPEDFATYYCQHHYDSPLTFGGGTKVEIKR
B10: H98L50 (H98-M58 / L50) (antibody, V domains shown)
VH: QVQLVQSGAEVKKPGASVKVSCKASGYTFTGYIMNWVRQAPGQGLEWMGLINPYNGGTSYNQQFQDRVTITADKSTSTAYMELSSLRSEDTAVYYCARDGYDDGPYTLETWGQGTLVTVSS
VL: DIQMTQSPSSLSASVGDRVTITCQASEDIYSFLAWYQQKPGKAPKLLIYNAQTEAQGVPSRFSGSGSGTDFTLTISSLQPEDFATYYCQHHYDSPLTFGGGTKVEIKR
B11: H92L17 (H92-M58 / L17) (antibody, V domains shown)
VH: QVQLVQSGAEVKKPGASVKVSCKASGYTFTGYAMNWVRQAPGQGLEWMGLINPYNGGTDYNPQFQGRVTITADKSTSTAYMELSSLRSEDTAVYYCARDGYDDGPYTLETWGQGTLVTVSS
VL: DIQMTQSPSSLSASVGDRVTITCQASEDIYSFVAWYQQKPGKAPKLLIYNAQTEAQGVPSRFSGSGSGTDFTLTISSLQPEDFATYYCQHHYDSPLTFGGGTKVEIKR
B12: H46L17 (H46-M58 / L17) (antibody, V domains shown)
VH: QVQLVQSGAEVKKPGASVKVSCKASGYTFTGYAMNWVRQAPGQGLEWMGLINPYNGGTDYNPQFQDRVTITADKSTSTAYMELSSLRSEDTAVYYCARDGYDDGPYTLETWGQGTLVTVSS
VL: DIQMTQSPSSLSASVGDRVTITCQASEDIYSFVAWYQQKPGKAPKLLIYNAQTEAQGVPSRFSGSGSGTDFTLTISSLQPEDFATYYCQHHYDSPLTFGGGTKVEIKR
B13: H78L17 (H78-M58 / L17) (antibody, V domains shown)
VH: QVQLVQSGAEVKKPGASVKVSCKASGYTFTGYIMNWVRQAPGQGLEWMGLINPYNGGTDYNPQFQGRVTITADKSTSTAYMELSSLRSEDTAVYYCARDGYDDGPYTLETWGQGTLVTVSS
VL: DIQMTQSPSSLSASVGDRVTITCQASEDIYSFVAWYQQKPGKAPKLLIYNAQTEAQGVPSRFSGSGSGTDFTLTISSLQPEDFATYYCQHHYDSPLTFGGGTKVEIKR
B14: H34L17 (H34-M58 / L17) (antibody, V domains shown)
VH: QVQLVQSGAEVKKPGASVKVSCKASGYTFTGYAMNWVRQAPGQGLEWMGLINPYNGGTDYNPQFQDRVTITADESTSTAYMELSSLRSEDTAVYYCARDGYDDGPYTLETWGQGTLVTVSS
VL: DIQMTQSPSSLSASVGDRVTITCQASEDIYSFVAWYQQKPGKAPKLLIYNAQTEAQGVPSRFSGSGSGTDFTLTISSLQPEDFATYYCQHHYDSPLTFGGGTKVEIKR
B15: H57L17 (H57-M58 / L17) (antibody, V domains shown)
VH: QVQLVQSGAEVKKPGASVKVSCKASGYTFTGYIMNWVRQAPGQGLEWMGLINPYNGGTDYNPQFQGRVTITADESTSTAYMELSSLRSEDTAVYYCARDGYDDGPYTLETWGQGTLVTVSS
VL: DIQMTQSPSSLSASVGDRVTITCQASEDIYSFVAWYQQKPGKAPKLLIYNAQTEAQGVPSRFSGSGSGTDFTLTISSLQPEDFATYYCQHHYDSPLTFGGGTKVEIKR

The target of the first test is T1, rhNR10 (recombinant human NR10) (human, UniProt Q8NI17 20-519, limits assumed).
T1 construct: also called IL-31 receptor; IL31RA
T1 sequence: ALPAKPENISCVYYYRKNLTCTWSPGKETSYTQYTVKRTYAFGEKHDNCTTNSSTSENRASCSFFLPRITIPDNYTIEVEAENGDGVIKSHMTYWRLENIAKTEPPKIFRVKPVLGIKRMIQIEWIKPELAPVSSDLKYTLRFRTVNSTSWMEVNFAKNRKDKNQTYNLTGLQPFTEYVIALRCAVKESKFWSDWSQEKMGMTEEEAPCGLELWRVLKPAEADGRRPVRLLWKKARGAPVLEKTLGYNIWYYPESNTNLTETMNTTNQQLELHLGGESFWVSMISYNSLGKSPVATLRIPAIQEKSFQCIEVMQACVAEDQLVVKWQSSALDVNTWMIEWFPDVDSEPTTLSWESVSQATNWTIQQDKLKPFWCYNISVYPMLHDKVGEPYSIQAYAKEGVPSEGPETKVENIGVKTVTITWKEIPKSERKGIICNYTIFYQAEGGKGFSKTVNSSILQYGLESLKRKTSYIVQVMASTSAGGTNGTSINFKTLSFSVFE
The experiment in a line: SPR, Biacore T100; antibody captured on Protein A, rhNR10 as analyte. The method, then:
(§1) Kinetic analysis of the antigen-antibody reaction was carried out using Biacore T100 (GE Healthcare Biosciences). The antigen-antibody interaction was measured by immobilizing rec-Protein A (hereinafter Protein A) (ZYMED) onto a sensor chip, capturing an antibody on the immobilized Protein A, and then reacting the antigen as an analyte. Various concentrations of rhNR10 were used as the antigen. The kinetic parameters, association rate constant kₐ (1/Ms) and dissociation rate constant kd (1/s), were calculated from the sensorgrams obtained by the measurement. Then, KD (M) was determined based on the rate constants. Each parameter was determined using Biacore T100 Evaluation Software version 1.1 (GE Healthcare Biosciences).
(§2) The running buffer used was HBS-EP+. Each antibody was prepared at 0.25 μg/ml, or prepared so that about 100 RU would bind to Protein A. rhNR10 used as an analyte was prepared at 0, 38.5, 77.0, and 154 nM, or at 0, 19.25, and 77.01 nM using HBS-EP+. In the measurement, first, the antibody solution was captured on Protein A, and an analyte solution was reacted at a flow rate of 20 μL/min for three minutes. Then, the solution was switched to HBS-EP+, and the dissociation phase was measured for five minutes. After measurement of the dissociation phase, the sensor chip was regenerated by washing with 10 mM glycine-HCl (pH 1.5). The obtained sensorgrams were kinetically analyzed using the Biacore-specific data analysis software, Biacore T100 Evaluation Software Version 1.1.
Consider B1, for which the Kd was determined as 1.5 nM, the koff was 0.0004 s⁻¹ and the kon came out at 260000 M⁻¹ s⁻¹.
Regarding B2, the Kd was 3.7 nM, the koff is 0.00052 s⁻¹ and the kon was determined as 140000 M⁻¹ s⁻¹.
Regarding B3, the Kd worked out at 1.8 nM, the koff is 0.00044 s⁻¹ and the kon came to 250000 M⁻¹ s⁻¹.
Take B4: the Kd was determined as 2.1 nM, the koff turned out to be 0.00046 s⁻¹ and the kon is 220000 M⁻¹ s⁻¹.

The target of another test is T1, rhNR10 (recombinant human NR10). The test is described as above. The source holds these as a separate data set. The method, then:
as §1, §2
As for B5, the Kd was 0.83 nM, the koff stood at 0.00057 s⁻¹ and the kon is 680000 M⁻¹ s⁻¹.
In the same order, the values of B6 are 0.52 nM, 0.00033 s⁻¹ and 640000 M⁻¹ s⁻¹.
In the same order, the values of B7 are 0.65 nM, 0.00037 s⁻¹ and 570000 M⁻¹ s⁻¹.
As for B8, the dissociation constant (Kd) came to 3.5 nM, the koff was found to be 0.0013 s⁻¹ and the kon came to 360000 M⁻¹ s⁻¹.
Turning to B9, the Kd stood at 3.3 nM, the koff was 0.0012 s⁻¹ and the kon was 370000 M⁻¹ s⁻¹.
Take B10: the Kd was determined as 4.6 nM, the koff is 0.0013 s⁻¹ and the kon worked out at 290000 M⁻¹ s⁻¹.
As for B11, the Kd is 4.1 nM, the dissociation rate constant (koff) was determined as 0.0013 s⁻¹ and the kon stood at 310000 M⁻¹ s⁻¹.
As for B12, the Kd was found to be 4.6 nM, the koff amounted to 0.0013 s⁻¹ and the kon came out at 290000 M⁻¹ s⁻¹.
As for B13, the Kd was found to be 1.1 nM, the koff is 0.0007 s⁻¹ and the kon came out at 610000 M⁻¹ s⁻¹.
With B14, the Kd amounted to 3.6 nM, the koff came out at 0.0012 s⁻¹ and the kon was 340000 M⁻¹ s⁻¹.
As to B15, the Kd is 0.77 nM, the koff was 0.00055 s⁻¹ and the kon is 710000 M⁻¹ s⁻¹.
